From patent publication US11161912B2, “Heparanase-neutralizing monoclonal antibodies” (Technion Research & Development Foundation Limited, priority 2015, dated 2021)
Entries after “also recorded” stand apart in the source; their conditions may differ.

Key:
heparanase = target: T1, heparanase (Homo sapiens, UniProt Q9Y251); assay: Intracellular heparanase content of heparanase-transfected 293 cells (immunofluorescence, immunoblot); format: cell-based; conditions: cells over-expressing heparanase grown with mAb for two days
T1 sequence (Q9Y251 36-543): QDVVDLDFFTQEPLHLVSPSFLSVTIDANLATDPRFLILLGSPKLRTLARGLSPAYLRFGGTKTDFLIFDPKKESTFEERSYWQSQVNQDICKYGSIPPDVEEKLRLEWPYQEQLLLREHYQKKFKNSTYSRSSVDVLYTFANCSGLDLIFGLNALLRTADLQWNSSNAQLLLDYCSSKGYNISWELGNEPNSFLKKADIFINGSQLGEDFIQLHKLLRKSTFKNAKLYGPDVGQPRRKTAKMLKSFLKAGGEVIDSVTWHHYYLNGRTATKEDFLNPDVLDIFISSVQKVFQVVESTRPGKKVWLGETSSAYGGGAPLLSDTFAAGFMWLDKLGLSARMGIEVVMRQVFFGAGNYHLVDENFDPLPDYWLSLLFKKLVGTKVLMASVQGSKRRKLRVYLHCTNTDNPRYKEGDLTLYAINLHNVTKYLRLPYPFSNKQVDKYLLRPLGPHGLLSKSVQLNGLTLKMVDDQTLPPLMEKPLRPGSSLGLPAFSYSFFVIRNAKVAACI
Description: (§1) FIG. 3A. HEK 293 cells were incubated with latent 65 kDa (upper panel) or GS3 constitutively active heparanase (1 μg/ml; third panel) and the indicated mAbs (10 μg/ml). The cell medium was aspirated at the time designated and cell lysates were subjected to immunoblotting applying anti-heparanase antibody (upper and third panels). […] Heparanase-transfected 293 cells were grown with control mouse IgM or mAb 9E8 for two days. Cells were then fixed with methanol and subjected to immunofluorescent staining applying anti heparanase antibody (second panel) or lysed and subjected to immunoblotting applying anti-heparanase antibody (fourth panel). Purified recombinant active heparanase (200 ng) was pre-incubated with control mouse IgM ( ? ), mAb 8A5 ( ? ), mAb 9E8 ( ? ), all at 2 μg/ml, for 2 h in serum-free RPMI medium on ice. The mixture was then applied onto ^35S-labeled ECM-coated dishes and heparanase activity was determined as described above (lower panel). FIG. 3B, C. ESb mouse T-lymphoma cells (5×10^5) were inoculated subcutaneously in NOD/SCID mice (n=5) and treated with PG545 (20 mg/kg, once a week) (B) or the indicated mAb (500 μg/mouse every other day) (C). FIG. 3C. […] Quantification of the extent of CD45 staining is shown graphically in the lower panel. […]

[1] = tested on: ESb mouse T-lymphoma cells; assay: ESb T-lymphoma spontaneous liver metastasis and survival; format: in vivo; conditions: ESb, mAb 500 μg/mouse every other day, 3 weeks
Description: Lymphoma cells were also inoculated subcutaneously at the right flank of 6-weeks-old NOD/SCID mice (human cell lines) or C57BL/6 mice (E1-4 mouse lymphoma cells) (n=7). Mice were treated with heparanase inhibitors (PG545; SST0001) or neutralizing antibodies and xenografts size was determined by externally measuring the tumors in 2 dimensions using a caliper. At the end of the experiment, mice were sacrificed; tumor xenografts were removed, weighed and fixed for histological and immunohistochemical analyses (Weissmann et al, 2016, Proc Natl Acad Sci USA 113:704-709). ESb mouse T-lymphoma cells (5×10^5) were similarly inoculated subcutaneously into SCID mice and spontaneous metastasis to the liver (Vlodaysky et al., 1983, Cancer Res 43:2704-2711) was examined after 3 weeks of treatment with PG545 or the neutralizing mAb, as described above. All animal experiments were approved by the Animal Care Committee of the Technion, Haifa, Israel.
as §1, with “C.” for “C. ESb mouse T-lymphoma cells (5×10^5) were inoculated subcutaneously in NOD/SCID mice (n=5) and treated with PG545 (20 mg/kg, once a week) (B) or the indicated mAb (500 μg/mouse every other day) (C). FIG. 3C.”

[2] = target: T2, heparanase (latent 65 kDa or GS3 constitutively active) (Homo sapiens, UniProt Q9Y251); assay: Cellular uptake and processing of heparanase in HEK 293 cells (immunoblot); format: cell-based; conditions: mAb 10 μg/ml
T2 construct: host or cells: added exogenously to HEK 293 cells
T2 sequence (Q9Y251 36-543): T1 sequence (Q9Y251 36-543)
Source text: (§2) Development of heparanase-neutralizing monoclonal antibodies: In order to target heparanase activity even more specifically, a panel of monoclonal antibodies (mAb) directed against the KKDC peptide (Lys158-Asn171) which comprises the substrate (HS)-binding domain of heparanase (Levy-Adam F, et al. 2005, J Biol Chem 280(21):20457-20466) were developed. In order to validate that the resulting antibodies target the heparin/HS binding domain, cellular uptake of latent 65 kDa heparanase in the absence or presence of the various newly generated mAbs was tested. This system appeared most relevant because previous studies have shown that heparanase uptake is HS-dependent (Gingis-Velitski S, et al. 2004. J Biol Chem 279(42):44084-44092). […] Moreover, liver metastasis of ESb cells was inhibited 4-5 fold by mAb 9E8 (FIG. 3C). The availability of highly specific heparanase-neutralizing mAbs led to the conclusion that heparanase enzymatic activity is required for cell invasion and tumor metastasis.
(§3) FIG. 3A. HEK 293 cells were incubated with latent 65 kDa (upper panel) or GS3 constitutively active heparanase (1 μg/ml; third panel) and the indicated mAbs (10 μg/ml). […] The mixture was then applied onto ^35S-labeled ECM-coated dishes and heparanase activity was determined as described above (lower panel). […] Quantification of the extent of CD45 staining is shown graphically in the lower panel. […]

[3] = tested on: heparanase (latent 65 kDa or GS3 constitutively active); assay: as above; format: cell-based; conditions: GS3 1 μg/ml, mAb 10 μg/ml
Source text: as §2, §3

lymphoma cells = assay: Lymphoma cell death, propidium iodide FACS; format: cell-based; conditions: 50 μg/ml, 24 h
Description: FIG. 6A. CAG myeloma. NOD/SCID mice (n=5) were inoculated (iv) with CAG-luciferase cells (5×10^6) and mice were treated with mAb 9E8 (600 μg/mouse every other day). Tumor growth was evaluated by IVIS imaging (left panels). Quantification of luciferase signals is shown graphically in the right panel. Note 2-3 fold decrease in tumor growth by the heparanase-neutralizing mAbs. FIG. 6B. Bone marrow was harvested from C57Bl/6 mice, cells were collected by centrifugation and heparanase activity was determined as described under ‘Materials and Methods’ (left panel). Corresponding bones were fixed in formalin and following de-calcification were subjected to immunostaining applying anti-heparanase antibody (right panel). FIG. 6C. The indicated cell line (0.25×10^6) was treated with antibodies 1453or 9E8 (50 μg/ml) for 24 h. Cells were then washed once with FACS buffer (PBS containing 2% FCS), incubated with Propidium Iodide (PI; 1 μg/ml) for 10 min and analyzed using FACS Cyan ADP system (Beckman Coulter, Inc). PI-positivity indicates a disturbed membrane and cell death.

B1: mAb 9E8: monoclonal IgM raised against KKDC peptide (Lys158-Asn171) of heparanase; VH SEQ ID NO: 7, VL SEQ ID NO: 8 (antibody)
VH: EVKLLESGGGLVQPGGSLKLSCAASGFDFSRYWMSWVRQAPGKGLEWIGEINPDSSTINYTPSLKDKFIISRDNAKNTLYLQMSKVRSEDTALYYCARRGYEGNYAMDYWGQGTSVTVSSESQSFPNVFPLVSCESPLSDKNLVAMGCLAR
VL: DIVMTQAAPSVPVTPGESVSISCRSSKSLLHSNGNTYLYWFLQRPGQSPQLLIYRMSNLASGVPDRFSGSGSGTAFTLRISRVEAEDVGVYYCMQHLEYPFTFGSGTKLEIKRADAAPTVSIFPPSSEQLTSGGASVVCFL
modifications: IgM constant regions
intracellular content of heparanase (heparanase): marked decrease | inhibition of liver metastasis (CD45 staining) [1]: 4-5 fold | uptake and processing of latent 65 kDa heparanase [2]: markedly decreased; also recorded: almost complete inhibition | uptake of constitutively active heparanase (GS3) [3]: inhibited profoundly | lymphoma cell death (PI-positivity) (lymphoma cells): do not elicit lymphoma cell death
